In publication PMC2198996:

Biological target: HA1.7 TCR-β chain (human)
Assay: co-IP

Substance: HA1.7 TCR-α chain
- stoichiometry N: 1
